What is called EC50 is the concentration needed to bring the measured effect to its halfway point. Read a low EC50 as greater potency. The term IC50 denotes the midpoint of a concentration-inhibition curve.

In assay [1] the target is T1, PACAP38 (UniProt P18509 132-169, biotinylated in the ELISAs).
T1 peptide (looked up): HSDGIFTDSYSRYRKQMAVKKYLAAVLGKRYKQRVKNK
Briefly: cell-based or functional assay.

For assay [2], the target named is T2, VIP (UniProt P01282 125-152, biotinylated in the ELISA).
T2 construct: also called vasoactive intestinal peptide
T2 peptide (looked up): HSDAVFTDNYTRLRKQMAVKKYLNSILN
Briefly: ELISA, biotinylated VIP on streptavidin plate. The protocol:
(§1) In this test example, the abilities of the chimeric antibodies and humanized antibodies of C1 #, C9 #, C21 #, and C28 #to bind to human CGRP and rat CGRP were assessed using ELISAs. Plates were coated with […] human CGRP and rat CGRP, respectively, and blocked, and the antibodies, serially diluted, were then added. The plates were incubated for 1 h and washed, and a horseradish peroxidase-labeled anti-human Fc secondary antibody was then added. After incubation, color development was performed. […] The plates were incubated for 1 h and washed, and the antibodies, serially diluted, were then added. The plates were incubated for 1 h and washed, and a horseradish peroxidase-labeled streptavidin secondary antibody was then added. After incubation, color development was performed.
(In general: ELISA stands for enzyme-linked immunosorbent assay.)

Assay [3] deals with T1, PACAP38. Description: ELISA, biotinylated peptide on streptavidin plate. The protocol:
as §1

In assay [4] the target is T3, PACAP27 (UniProt P18509 132-158, biotinylated in the ELISAs).
T3 peptide (looked up): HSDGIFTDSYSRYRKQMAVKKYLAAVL
Briefly: ELISA, biotinylated peptide on streptavidin plate. The protocol: as §1

Assay [5] concerns the target T1, PACAP38. Description: competition ELISA, biotinylated PACAP38 to coated PAC1-Fc. The protocol:
(§2) The plates were incubated for 1 h and washed, and a horseradish peroxidase-labeled streptavidin secondary antibody was then added. After incubation, color development was performed.

Assay [6] has as its target T1, PACAP38. Briefly: competition ELISA, biotinylated PACAP38 to coated VPAC1-Fc. How it is done: as §2
Assay [7] deals with T1, PACAP38. Description: competition ELISA, biotinylated PACAP38 to coated VPAC2-Fc. The protocol:
as §2

Assay [8] deals with T1, PACAP38. Briefly: cell-based or functional assay.
Assay [9] addresses T1, PACAP38. Description: ELISA, antibody on coated anti-human Fc, biotinylated peptide. How it is done: (§3) Plates were coated with 1 μg/mL anti-human Fc and blocked, and the antibodies, serially diluted, were added. […] The plates were incubated for 1 h and washed, and a horseradish peroxidase-labeled streptavidin secondary antibody was then added. After incubation, color development was performed.

Assay [10] deals with T3, PACAP27. Described as above. How it is done: as §3

Like-named read-outs stand apart in the source and are kept apart here.

B1: P14H1L2 (antibody, human IgG1, kappa, V domains shown)
VH: EVQLVESGGGLVKPGGSLRLSCAASGFAFNNYDMSWVRQAPGKGLEWVATITGGGSYTWYPDSVKGRFTISRDNAKNSLYLQMNSLRAEDTAVYYCARLTGYDQAGAMDYWGQGTTVTVSS
VL: DIVLTQSPDSLAVSLGERATINCKASQSVDYDGDSYMTWYQQKPGQPPKLLIYAASNLDSGIPDRFSGSGSGTDFTLTISSLQAEDVAVYYCQQSNEDPWTFGGGTKVEIKR
As to B1, in assay [1], the “IC50, inhibition of cAMP production in SH-SY5Y cells” value (from here on “IC50, inhibition of cAMP production”) is 2370 pM. Also, in [2], the binding result is “no binding”. The EC50 in assay [3] came to 90 pM; in [4], 190 pM. For the same molecule, the IC50 in assay [5] came to 450 pM; in assay [6] it was 190 pM; in [7], 180 pM.

B2: P14H2L3 (antibody, human IgG1, kappa, V domains shown)
VH: EVQLVESGGGLVQPGGSLRLSCAASGFAFNNYDMSWVRQAPGKGLEWVATITGGGSYTWYPDSVKGRFTISRDNAKNSLYLQMNSLRAEDTAVYYCARLTGYDQAGAMDYWGQGTTVTVSS
VL: DIVLTQSPDSLAVSLGERATINCKASQSVDYDGDSYMTWYQQKPGQPPKLLIYAASHLDSGIPDRFSGSGSGTDFTLTISSLQAEDVAVYYCQQSNEDPWTFGGGTKVEIKR
On to B2, for which the figures for the “IC50, inhibition of cAMP production” value in assay [1] and in assay [8] were 4020 pM and 2400 pM, respectively. Also, in assay [2], the binding result is “no binding”. For the same molecule, the EC50 in assay [3] is 90 pM; in assay [4] it was 200 pM; in assay [9], 130 pM; in assay [10], 160 pM. Further, the IC50 in assay [5] worked out at 670 pM; in assay [6] it was 580 pM; in [7] it was 400 pM.

B3: P14H1L1 (antibody, human IgG1, kappa, V domains shown)
VH: EVQLVESGGGLVKPGGSLRLSCAASGFAFNNYDMSWVRQAPGKGLEWVATITGGGSYTWYPDSVKGRFTISRDNAKNSLYLQMNSLRAEDTAVYYCARLTGYDQAGAMDYWGQGTTVTVSS
VL: DIVMTQSPDSLAVSLGERATINCKASQSVDYDGDSYMTWYQQKPGQPPKLLIYAASNLDSGVPDRFSGSGSGTDFTLTISSLQAEDVAVYYCQQSNEDPWTFGGGTKVEIKR
Regarding B3, the binding result in assay [2] is recorded as “no binding”. The concentration giving a half-maximal response (EC50) in assay [3] came to 110 pM; in [4], 190 pM. In addition, the IC50 was 510 pM in [5], 200 pM in assay [6] and 210 pM in assay [7].

B4: P14#-CHI (antibody, human IgG1, kappa, V domains shown)
VH: DVKLVESGGGLVKPGGSLKVSCAASGFAFNNYDMSWVRQTPEKRLDWVATITGGGSYTWYPDSVKGRFTISRDNARNTLFLQMSSLRSEDTALYYCARLNGYDQAGAMDYWGQGTSVTVSS
VL: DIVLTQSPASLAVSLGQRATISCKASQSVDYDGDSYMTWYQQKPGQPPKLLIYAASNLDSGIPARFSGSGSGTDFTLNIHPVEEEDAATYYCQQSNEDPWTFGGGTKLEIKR
notes: chimeric: murine variable regions fused to human constant regions; also called P14#-CH1
For the molecule B4, in assay [1], the “IC50, inhibition of cAMP production” value was 1460 pM. Moreover, the binding result in assay [2] is given as “no binding”. Moreover, the values for the EC50 in assay [3] and in assay [4] were 90 pM and 140 pM, respectively. The IC50 in assay [5] came out at 480 pM; in [6], 270 pM; in [7], 230 pM.

The values are drawn from patent US20260176358A1 (JIANGSU HENGRUI PHARMACEUTICALS, published 2026).
